# Experiment: soluble on expression in E. coli; label from the status in PepcDB or PDB records
row,Sequence,soluble on expression in E. coli
1,MNNNNKAKTLITQLEQEINWVEELNTLLSEEKEILSTSQFNQLETLAEKKQELSTKLEASAKQRVDLIKESNPGDKPHGLLLSDFLKNCATEDGIQINHLNNTLAERLNLCRELNTINGQVIANNMYTRQQIVNALSGNKSDAVSVYTSNGNLETPSESSHHEEA,soluble
2,MNNSNENDVILAWWDWGHFITYYARRSPIAQGGPSVGVALYLLGKLNENWAINLGVDYVIVSYYDFLKFGAILSTANLSKRYNIRGYGLVVLPLRASTGALIFENRGYRAIVRHDKSWNAVIIYNGQMIYPRKLYVEHKEGVQEIKPPESNSNTYLYVNLNYGLEHHHHHH,not soluble
3,MNNSSNADSQEGSTSAQKQKTANPSESRPFVLKKWNALAVWAWDVECDTCAICRVHLMEECLRCQSEPSAECYVVWGDCNHSFHHCCMTQWIRQNNRCPLCQKDWVVSRTSK,not soluble
4,MNNTVIACVDGSPSTRPVCEYAAWAAGKLGAPLALLHVLEKSETPAVSDLTGSIGIDSREQLTEALVRVEGERSRLLMAQGKAVLAGCAELLKQTGQPDAQLLQKHGALDEILAELGEVRLMVLGRRGTQNQVGSHLESVIRLQKNPVLIVPETFTPPARVMFAYDGSSESRKNLTRLTVSPLLHGLSCHIVMVNGDMSALQDAQAVLQEAGITTETRLLEDESVTGALCRYADAHDIDLTVMGACGHSRLRRFFIGSHTTEMLSESRQPLLMLR,not soluble
5,MNNVFVYCEIEGTTVADVSLELLTKGRKLANQLGCQLEAIAAGTGLAGIEKQVLPYGVDKLHVFDAPGLFPYTSLPHTSILVNLFKEEKPQICLMGATVIGRDLGPRVSSALTSGLTADCTQLEIGTHEDKKNGITYENLLYQIRPAFGGNIVATIVNPEHRPQMATVREGVMKKEILDENYKGEVVNHDVAKFVPETDYVV,not soluble
6,MNPFDMLSPGYQDIWLRLQSERLLLEKRISAKEGELKNLMQFVQNPPFLNFPQYMLPQGPLGAQNQ,not soluble
7,MNPITNIKNQNRMNERELSLGYAGDLKKSWHQTYKDSAWIYIGGLSYALSEGDVIAVFSQYGEVMNINLIRDKDTGKSKGFAFLCYKDQRSTILAVDNFNGISLHKRMIRVDHVEEYKVPKYKEDADDETKRLWEEGCAPKPVMREAAPMEVQEQRIKKAKEVLLDIGDVDEELLKKIKKDKKKAKKEKKREKKRAKKIRKLEKKAARDPDGDWNNKAKLIDKVVAEDDLYGENKHFDFGKKKEVEEVKHNPRPDFEKADWRDIEIWKVIREREKAEKAARGETSEAWGPEDHYVSKRYQGR,not soluble
8,MNPLSIVIITLNEENRIGRLLEDLTEQTFKNFEVIVVDSNSSDATCEVAQSFSASIPDLTVHKMDKQGVSLGRNTGASLAKHERLLFLDADVRLSPDFLTKALTQLNEKGLEVAGVYMGSKGLPVAHKLGYMTFNIGLFLTQFAFPTAVGACIFSTRRAHKDLLGFDENITLCEDCDYVKRASRTWRFRFLPMTFEFDPRRLEQDGFLRMGYTYLKANVRRFLFGEMRNNEMEYKFGHYSNQKLEHHHHHH,soluble
9,MNPQRGILFACLLVVVTNRGATAQHARPPVGVTGDVTGARIDPPSDKCENPSVNIATTEAPKIVTTAEPAANSTKPAQPNSATGPVVLLTIVAVTMN,not soluble
10,MNPTDWIDTGAVPPRPLPATVDAALAYLSEALGHPVYAHWTLARVKRRYGSLSDAKAAQPTVLKLLLAHDGAVEYWERGRLRTVPADQAPGPAMVLARLLHTHRRRFRLAASSGNAAAVPAASEAAGLVAAPWLAAYSHAEHTWLARAGRFAQLHAATNTLGVANDAQALALFLRDRTGRSPHTLRAYGAELRRLMRWCGVHEVGPLSDLTRQQLLAYRHTLQHGEPGTENASPQLSEATCTRALAVVASLYGYWYDTGYLQANPAAGLSAGSRARAGFAPTRLIPPALLDACDAWLDASAVDASLPALRRRAIWALYRYAGARLAELVWSDEAALPRLEAEVPGHWTLYVCGKGRKVRAIPLPVPCVAVLRAYRHARGLPPEPPAHEALPVIHGHKGEALQSAGLYREVKAIFAAVADGLQARDPAQALLLRAASPHWLRHAYARTLVVDHQVPLPAAQALLGHASVQTTAAYARTDLTQLRAFVDATFADDAPLEHHHHHH,not soluble
11,MNPVLKSSKLVIFDLDGTLYEGTDHFDYYANHLKQNVPQSQQLDFWRDYTAMKDGHHPVQIGKGYDVKRDYILTIDPMTISVQSVQTWDGSYVPAEEWETLYSDPVSFDFETIIAVGDGWWYPFVTAKHYGVEDCYASYVATKEYMVTDEFELTPLPGLREGLIELKATKEIVLVTNSDREDVQRLLHELHLHDVFNHIITSAKKPTRTTDIFKEVVHQYEVDMSQVVSVGDNFMNEIAQALTLGMQGIYIHPQRASEVAHDHLTVIRSVVELFKNLEHHHHHH,soluble
12,MNQDLSQTFLAITRNSTDLEWLQGALAPLGQVVGADGSLDELLALVDVTFANLVFVGLDREHVVAQAALIEGALEAKPMLAIVALGDGMDNQLVLNAMRAGARDFVAYGSRSSEVAGLVRRLSKRLPAVTPNTQLGGLTVLYGAQGDGDGALLASHLALVVQKSGQQTLLLDLGLPRGDSLALLGLESSFHFGDALRHLRRLDATLIDSAFTSAEAGLRILAYASHDAPLEHTSAAELYMLLSALRQHFQHIVVNLVGQPDSEALRTFVSHCDKLLWCTDQNVLDCRRNLAVLNHWREKGMKLEHARLLVDRYLRTVAPDSETLGKTFGLEVIAVLAYSPEVRLNAKNQGVTLFELAPREALTQSLRTLGERLAKRSQGLPKPKAGWLNRIMGGRLEHHHHHH,not soluble
13,MNQEVRFSRLEPEQRKALLIEATLACLKRHGFQGASVRKICAEAGVSVGLINHHYDGKDALVAEAYLAVTGRVMRLLRGAIDTAPGGARPRLSAFFEASFSAELLDPQLLDAWLAFWGAVGSIEAIGRVHDHSYGEYRALLVGVLRQLAEEGGWADFDAELAAISLSALLDGLWLESGLNPATFTPRQGVQICEAWVDGLEAGAHRRFRRAMEAC,soluble
14,MNQKLKVAIIGSGNIGTDLMIKVLRNAKYLEMGAMVGIDAASDGLARAQRMGVTTTYAGVEGLIKLPEFADIDFVFDATSASAHVQNEALLRQAKPGIRLIDLTPAAIGPYCVPVVNLEEHLGKLNVNMVTCGGQATIPMVAAVSRVAKVHYAEIVASISSKSAGPGTRANIDEFTETTSKAIEVIGGAAKGKAIIIMNPAEPPLIMRDTVYVLSAAADQAAVAASVAEMVQAVQAYVPGYRLKQQVQFDVIPESAPLNIPGLGRFSGLKTSVFLEVEGAAHYLPAYAGNLDIMTSAALATAERMAQSMLNA,soluble
15,MNQLKGIHHVTAITSSAEKNYEFFTHVLGMRLVKKTVNQDDIQTYHLFFADDKGSAGTDMTFFDFPGVPKGVHGTNEISKTSFRVPTDAALAYWVKRFDRLEVEHTGIKEQFGKKTLSFVDFDDQHYQLISDELDKGIESGTPWQNGPVPLEYAITGLGPVFIRIANFSFFKEVLEKVLLFKEIAQEGEFYLFEVNKGGNGASVIVEHNTVLPEAQQGFGTVHHAAFRVEDRAVLEEWIERISSVGLPSSGYVNRHFFESLYARVAPQILFEFATDGPGFMGDESYETLGEKLSLPPFLEPKREEIEKLVRPIDTVRSTKEFIKE,not soluble
16,MNQSCPNKTSFKIAFIQARWHADIVDEARKSFVAELAAKTGGSVEVEIFDVPGAYEIPLHAKTLARTGRYAAIVGAAFVIDGGIYDHDFVATAVINGMMQVQLETEVPVLSVVLTPHHFHESKEHHDFFHAHFKVKGVEAAHAALQIVSERSRIAALV,soluble
17,MNRFIIADATKCIGCRTCEVACAVSHHENQDCAALSPDEFISRIRVIKDHCWTTAVACHQCEDAPCANVCPVDAISREHGHIFVEQTRCIGCKSCMLACPFGAMEVVSSRKKARAIKCDLCWHRETGPACVEACPTKALQCMDVEKVQRHRLRQQPV,not soluble
18,MNRIAKLLKTKYPIVQGPMAGITLGEFASTVSEAGGLGVIASAGLSPEKLKEEIEKVKNRTDKPFAVNIPIYQPGSEKNLETALKADVGIIYTSAGSPEKYTERVKESGAKVIHKVSRLKEGLKAEKAGVDAVVAMGFEAGGIIGRSGVTSFCLIPELADNLSIPVVAAGGIADERGFAAALILGAEGVEIGTRLLATKECPVPESIKQAILKATCDSTMVIESPVVMRALKPELSGDSENPALGGQVSGLIKEILTVEEVIRKIAEGLNKAKF,not soluble
19,MNRIEHYHDWLRDAHAMEKQAESMLESMASRIDNYPELRARIEQHLSETKNQIVQLETILDRNDISRSVIKDSMSKMAALGQSIGGIFPSDEIVKGSIGGYVFEQFEITCYTSLLAAAKNAGDTVSIPIIEAILNEEKQMADWLIQHIPQTTEKFLIRSETDGVEAKK,not soluble
20,MNRIFCALMRADAARFREVVFPCALLQNHPHQFPHVLARLEFFAPPDQRNCLLLPRVLVKRSLAAKEPSKVNFLSVNLRKELHEEAKSSKKTNLK,not soluble
21,MNRLVILARVSTSKQDTERQLSDLNEVCTRNQYDLVNTFTETVSGKYGITERTTLQAIIKMAELKQFDKLLVSEVSRIGRKTSEVLKFIEILTERKISIYIHNYGLETLDRNLNQNPLIGMMINFLSSFSDMERTLTISRVKSGLEEARRRNVILGRPKNSTKDIDIFIDENKRLFELIKKQLTIREIARLTYKSTTTVVKAIKLYKLHPEKFLSAT,not soluble
22,MNRTLYTLLFHLGLPLVALRLWWRARQAPAYAKRIGERFSLSLPEVPPGGIWVHAVSVGESIAAAPMVRALLERHPQLPVTVTCMTPTGSERIRALFGEQVRHCYLPYDLPWAAARFLDRVRPRLAVIMETELWPNHIHACAVRGIPVALANARLSERSARGYARFAGLTRPMLAELSWIAVQTEAEAERFRRLGARPECVSVTGSIKFDLRIDPQLPLAAAALREEWDATARPLWIAASTHAGEDEIVLAAHRRLLETRPDALLILVPRHPERFAGVHELCRREGFATVRRSGGEPVARATQVLLGDTMGELLFLYALADIAFVGGSLVPNGGHNLLEPAALGKPVFAGPHLFNFLDIAAQLRDAGALLEVTDAGELCDGLARLWAQPEVATAMATAGEKVLRNNQGALERLLAGLARLLGRGG,not soluble
23,MNRTPSLHTKEKKGFIDMHTMWKGSISFGLVNIPIKLYAATEDKDIKLRSLHKEDHAPIKYEKVCTNCEKTLSPDEIVKGYEYVKGKYVVLTDEDLKSLKQEHEEKAVEIVDFVQLQEIDPIYFNRSYFVGPGDNGTKAYTLLREALRSTGKIGIANMTIRSKQQLAILRVYENCIVMESIHYPDEVRS,not soluble
24,MNSEIFRIFRKKYSEEIRNPPMNATTLPEALKLMQYIGDAIGTIRDPQELFRTVTDKLRLLFAFDSAVIITIDRERREASVFFEMLRFELPEQLRHQTRSIAGTWLEGHLDDRTVTVASIARDIPSFGADGAPLLWTLHELGMRQIVLSPLRSGGRVIGFLSFVSAEEKLWSDGDKSLLSGVSSSIAIAVSNALAYEELRQRE,not soluble
25,MNSSTANKQKGIQLIPFTVDKVVEQVNEIPPGVQLIHAPQVWEKSAKGKDIVVAVLDTGCDMNHIDLKDRIIGGRNFTKDYEGDPNIYLDNNGHGTHVAGTIAATENGVGVLGVAPLAKMLVLKVLAGDGSGSYEQIIEAIHYAVNWRGPNKERVRVISMSLGGPQDVPELHEAIQNAVKQDVLVVCAAGNNGDCNDNTEELDFPGAYSEVIEVGAVNLERKIACFSNSNQEIDLVAPGDEILSTYPEGKYAVLSGTSMATPHVAGALALLIKQCEREYGRKLSEPEIYAQLIKRTVPLGYERTSEGNGLIDLLKE,not soluble

# — the DeepSol protein solubility set
